{
  "source": "paper PMC7588443",
  "about": "(Nature Communications, 2020)",
  "molecules": {"B1": {"name": "BSRF1_(20-218) (domain or fragment)", "chain": "RNRYSQLPEEPETFECPDRWRAEIDLGLPPGVQVGDLLRNEQTMGSLRQVYLLAVQANSITDHLKRFDAVRVPESCRGVVEAQVAKLEAVRSVIWNTMISLAVSGIEMDENGLKALLDKQAGDSLALMEMEKVATALKMDETGAWAQEISAVVSSVTAPSASAPFINSAFEPEVPTPVLAPPPVVRQPEHSGPTELALT", "notes": "also called near-full-length BSRF1; source: E. coli, purified (as the BBRF2 constructs, 300 mM NaCl, no glycerol)"}, "B2": {"name": "BSRF1Δ with Cys95 mutated to serine (domain or fragment)", "chain": "ECPDRWRAEIDLGLPPGVQVGDLLRNEQTMGSLRQVYLLAVQANSITDHLKRFDAVRVPESSRGVVEAQVAKLEAVRSVIWNTMISLAVSGIEMDENGLKALLDKQAGDSLALMEMEKVATALKMD", "notes": "also called BSRF1Δ(C95S); source: E. coli, purified"}, "B3": {"name": "BSRF1Δ(M63D) (domain or fragment)", "chain": "B2 chain with M30D, S62C", "notes": "source: E. coli, purified"}, "B4": {"name": "BSRF1Δ(N59K) (domain or fragment)", "chain": "B2 chain with N26K, S62C", "notes": "source: E. coli, purified"}, "B5": {"name": "BBRF2: EBV tegument protein, full-length (protein)", "chain": "MASGKHHQPGGTRSLTMQKVSLRVTPRLVLEVNRHNAICVATNVPEFYNARGDLNIRDLRAHVKARMISSQFCGYVLVSLLDSEDQVDHLNIFPHVFSERMILYKPNNVNLMEMCALLSMIENAKSPSIGLCREVLGRLTLLHSKCNNLDSLFLYNGARTLLSTLVKYHDLEEGAATPGPWNEGLSLFKLHKELKRAPSEARDLMQSLFLTSGKMGCLARSPKDYCADLNKEEDANSGFTFNLFYQDSLLTKHFQCQTVLQTLRRKCLGSDTVSKIIP"}, "B6": {"name": "BBRF2Δ: N-terminally truncated version with deletion of residues 1−16 (protein)", "chain": "MQKVSLRVTPRLVLEVNRHNAICVATNVPEFYNARGDLNIRDLRAHVKARMISSQFCGYVLVSLLDSEDQVDHLNIFPHVFSERMILYKPNNVNLMEMCALLSMIENAKSPSIGLCREVLGRLTLLHSKCNNLDSLFLYNGARTLLSTLVKYHDLEEGAATPGPWNEGLSLFKLHKELKRAPSEARDLMQSLFLTSGKMGCLARSPKDYCADLNKEEDANSGFTFNLFYQDSLLTKHFQCQTVLQTLRRKCLGSDTVSKIIP"}, "B7": {"name": "BSRF1: Full-length BSRF1 (residues 1–218), EBV tegument protein (protein)", "chain": "MAFYLPDWSCCGLWLFGRPRNRYSQLPEEPETFECPDRWRAEIDLGLPPGVQVGDLLRNEQTMGSLRQVYLLAVQANSITDHLKRFDAVRVPESCRGVVEAQVAKLEAVRSVIWNTMISLAVSGIEMDENGLKALLDKQAGDSLALMEMEKVATALKMDETGAWAQEISAVVSSVTAPSASAPFINSAFEPEVPTPVLAPPPVVRQPEHSGPTELALT", "modifications": "left off: Flag, end not stated, kept", "notes": "Full-length BSRF1 (residues 1–218), EBV tegument protein"}, "B8": {"name": "BBRF2Δ(F209K): BBRF2Δ with Phe209 mutated to lysine (protein)", "chain": "B6 chain with F193K"}, "B9": {"name": "BBRF2Δ(M205K): BBRF2Δ with Met205 mutated to lysine (protein)", "chain": "B6 chain with M189K"}},
  "key": {"BBRF2Δ": {"biological_target": "T1, BBRF2Δ (Epstein-Barr virus, UniProt P29882)", "T1 construct": "The cDNAs for full-length BBRF2 and BBRF2_17–278 were cloned into a modified pET28 vector (pSKB); made in house; host or cells: E. coli Rosetta (DE3)", "assay": "biochemical", "type": "binding, human herpesvirus 4 strain M81", "description": "(§1) The biolayer interferometry (BLI) assay was performed using an eight-channel OctetRED biolayer interferometry system (FortéBio).\n(§2) All experiments were carried out at 25 °C. Each measurement involved an 120 s baseline (with reaction buffer), followed by a 180 s (with protein or peptide) association phase, and a 180 s dissociation phase (with reaction buffer). Raw data were processed using Octet Data Analysis software 11.0 provided by Fortebio to derive the dissociation constant (KD). The results were presented in a graph using Origin (version 2019, OriginLab)."}, "[1]": {"biological_target": "T2, His6-tagged BBRF2Δ (Epstein-Barr virus (human herpesvirus 4 strain M81)), P29882", "T2 chain": "B6 chain", "assay": "BLI"}, "[2]": {"assay": "SEC-RALS, oligomeric state in solution", "type": "physicochemical", "conditions": "Superdex 75 or 200, 20 mM HEPES pH 7.0, 600 mM NaCl, 10% glycerol, 1 mM DTT", "description": "(§3) The entire experiment was performed in buffer C. The RALS data were analyzed by OMNISEC software."}, "[3]": {"biological_target": "the molecule itself", "assay": "SEC-RALS; Superdex 75 or Superdex 200 Increase 10/300 GL; 25 μM of each purified protein mixed and incubated overnight at 4 °C; buffer C (20 mM HEPES pH 7.0, 600 mM NaCl, 10% glycerol, 1 mM DTT)"}, "BBRF2Δ (BBRF2 17-278) [4]": {"biological_target": "T3, BBRF2Δ (BBRF2 17-278) (Epstein-Barr virus (human herpesvirus 4 …, UniProt P29882 17-278))", "T3 construct": "source: E. coli Rosetta (DE3), purified (Ni-NTA, SEC)", "T3 sequence": "B6 chain", "assay": "SEC-RALS; Superdex 75 or Superdex 200 Increase 10/300 GL; 25 μM of each purified protein mixed and incubated overnight at 4 °C; buffer C (20 mM HEPES pH 7.0, 600 mM NaCl, 10% glycerol, 1 mM DTT)", "conditions": "both partners purified"}, "[5]": {"conditions": "6 μM protein, 3 mM liposomes (Golgi, ER, plasma membrane mixes), 60 min, room temperature; alone or complexed with full-length BBRF2", "method": "The lipids were mixed and dried under nitrogen gas flow to make a lipid film, which was dried again on the vacuum centrifuge (Concentrator plus, Eppendorf) for 1 h. The lipid film was rehydrated with buffer D containing 20 mM HEPES pH 7.0, 600 mM NaCl, 1 mM DTT to yield a final concentration of 10 mM. The mixture was frozen-thawed 15 times using liquid nitrogen, and homogenized using a mini extruder accompanied by a polycarbonate filter with 200 nm pore size (Avanti Polar Lipids, Inc.) to create large unilamellar liposomes. The plasma membrane liposome mix contained (mol %): 54.5% POPC, 33% PE, 11% DOPS, 1% PI3P, and 0.5% rhodamine-DPPE. The Golgi liposome mix contained (mol %): 52% POPC, 19% PE, 5% DOPS, 15% cholesterol, 8% PI4P, and 1% rhodamine-DPPE. The ER liposome mix contained (mol %): 83.5% POPC, 15% DOPS, and 1.5% rhodamine-DPPE. Protein (6 μM) was incubated with 3 mM liposomes in buffer D for 60 min at room temperature to generate proteoliposomes. […] After centrifugation in a Beckman TLA 100 rotor at 280,000 × g for 70 min at 4 °C, 40 μl aliquots (1/5 fraction each) were collected from the top to the bottom of the sucrose gradient. All fractions were analyzed by 14% SDS-PAGE."}, "BBRF2Δ (BBRF2 17-278) [6]": {"biological_target": "T3, BBRF2Δ (BBRF2 17-278)", "assay": "SEC", "conditions": "both partners purified"}, "His6-tagged BBRF2Δ": {"biological_target": "T4, His6-tagged BBRF2Δ (Epstein-Barr virus (human herpesvirus 4 …, UniProt P29882 17-278))", "T4 construct": "also called His-tagged BBRF2Δ; source: E. coli Rosetta (DE3), purified; not shown: His6, N-terminal, kept", "T4 sequence": "B6 chain", "assay": "BLI", "conditions": "both partners purified"}, "[7]": {"assay": "Solubility of recombinant BSRF1 constructs", "type": "physicochemical", "conditions": "recombinant protein"}, "BBRF2Δ(F209K)": {"system": "BBRF2Δ(F209K)", "assay": "Biolayer interferometry (BLI) on BBRF2Δ(F209K)", "type": "binding, human herpesvirus 4 strain M81", "conditions": "compared to wild-type, pH 7.0, 25 °C", "description": "as §1, §2"}, "BSRF1Δ": {"system": "BSRF1Δ", "assay": "SEC analysis, BBRF2Δ mutants with BSRF1Δ", "type": "binding, human herpesvirus 4 strain M81", "conditions": "Superdex 75, 25 μM each, overnight at 4 °C, buffer C pH 7.0", "description": "as §3"}},
  "note": "Numbering of substitutions follows the chain as printed. Names may count otherwise. Where a SMILES comes first, the peptide text is derived from it.",
  "data": [
    {"molecule": "CC[C@H](C)[C@H](NC(=O)[C@H](CO)NC(=O)[C@H](CC(N)=O)NC(=O)[C@H](C)NC(=O)[C@H](CCC(N)=O)NC(=O)[C@@H](NC(=O)[C@H](C)NC(=O)[C@H](CC(C)C)NC(=O)[C@H](CC(C)C)NC(=O)[C@H](Cc1ccc(O)cc1)NC(=O)[C@@H](NC(=O)[C@H](CCC(N)=O)NC(=O)[C@H](CCCNC(=N)N)NC(=O)[C@H](CC(C)C)NC(=O)[C@H](CO)NC(=O)CNC(=O)[C@H](CCSC)NC(=O)[C@@H](NC(=O)[C@H](CCC(N)=O)NC(=O)[C@H](CCC(=O)O)NC(=O)[C@H](CC(N)=O)NC(=O)[C@H](CCCNC(=N)N)NC(=O)[C@H](CC(C)C)NC(=O)[C@H](CC(C)C)NC(=O)[C@H](CC(=O)O)NC(=O)CNC(=O)[C@@H](NC(=O)[C@H](CCC(N)=O)NC(=O)[C@@H](NC(=O)CNC(=O)[C@@H]1CCCN1C(=O)[C@@H]1CCCN1C(=O)[C@H](CC(C)C)NC(=O)CNC(=O)[C@H](CC(C)C)NC(=O)[C@@H](N)CC(=O)O)C(C)C)C(C)C)[C@@H](C)O)C(C)C)C(C)C)C(=O)N[C@H](C(=O)N[C@@H](CC(=O)O)C(=O)O)[C@@H](C)O", "note": "[P1] (H-DLGLPPGVQVGDLLRNEQTMGSLRQVYLLAVQANSITD-OH)", "values": [
      {"measurement": "Kd", "setting": "BBRF2Δ", "value": 7.43, "unit": "µM"}
    ]},
    {"molecule": "DLGLPPGVQVGDLLRNEQTMGSLRQVYLLAVQANSITD (modifications not checked)", "note": "[BSRF1-derived peptide 1]", "values": [
      {"measurement": "Kd", "setting": "[1]", "value": 7.4, "unit": "µM"}
    ]},
    {"molecule": "B1", "values": [
      {"measurement": "oligomeric state in solution", "setting": "[2]", "value": "dimerized in solution"},
      {"measurement": "stoichiometry N", "setting": "[3]", "value": 2},
      {"measurement": "stoichiometry N", "setting": "BBRF2Δ (BBRF2 17-278) [4]", "value": 1},
      {"measurement": "membrane binding", "setting": "[5]", "value": "did not exhibit a strong tendency for membrane binding"}
    ]},
    {"molecule": "B2", "values": [
      {"measurement": "binding result", "setting": "BBRF2Δ (BBRF2 17-278) [6]", "value": "binds"}
    ]},
    {"molecule": "B3", "values": [
      {"measurement": "binding result", "setting": "BBRF2Δ (BBRF2 17-278) [6]", "value": "binds"},
      {"measurement": "binding result", "setting": "His6-tagged BBRF2Δ", "value": "binds"}
    ]},
    {"molecule": "B4", "values": [
      {"measurement": "binding result", "setting": "BBRF2Δ (BBRF2 17-278) [6]", "value": "binds"},
      {"measurement": "binding result", "setting": "His6-tagged BBRF2Δ", "value": "binds"}
    ]},
    {"molecule": "B5", "values": [
      {"measurement": "oligomeric state in solution", "setting": "[2]", "value": "monomer in solution"}
    ]},
    {"molecule": "B6", "values": [
      {"measurement": "oligomeric state in solution", "setting": "[2]", "value": "monomeric both in solution and in the asymmetric unit of the crystal"}
    ]},
    {"molecule": "B7", "values": [
      {"measurement": "solubility", "setting": "[7]", "value": "insoluble"}
    ]},
    {"molecule": "B8", "values": [
      {"measurement": "binding affinity of BBRF2Δ(F209K) with BSRF1Δ, in words", "setting": "BBRF2Δ(F209K)", "value": "moderately reduced binding affinity"},
      {"measurement": "complex formation with BSRF1Δ", "setting": "BSRF1Δ", "value": "maintained the binding for BSRF1Δ"}
    ]},
    {"molecule": "B9", "values": [
      {"measurement": "complex formation with BSRF1Δ", "setting": "BSRF1Δ", "value": "did not form a complex with BSRF1Δ"}
    ]}
  ]
}
